B1: library; numbered along this chain (parent)
chain: MAAAAAAAAEQQSSNGPVKKSMREKAVERRSVNKEHNSNFKAGYIPIDEDRLHKTGLRGRKGNLAICVIILLFILAVINLIITLVIWAVIRIGPNGCDSMEFHESGLLRFKQVSDMGVIHPLYKSTVGGRRNENLVITGNNQPIVFQQGTTKLSVENNKTSITSDIGMQFFDPRTQNILFSTDYETHEFHLPSGVKSLNVQKASTERITSNATSDLNIKVDGRAIVRGNEGVFIMGKTIEFHMGGNMELKAENSIILNGSVMVSTTRLPSSSSGDQLGSGDWVRYKLCMCADGTLFKVQVTSQNMGCQISDNPCGNTH

Variants of: B1
Test: SGCB cell-surface expression functional score (HA stain, bin4 vs bin1, normalised to synonymous) (log10 ratio); higher = more cell-surface SGCB (functional)
Procedure, shortened: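 Sorting and sequencing yield the functional score, defined as the log ratio of a variant's highest-bin frequency to its lowest-bin frequency, with the median taken over codons and replicate transductions. The libraries, codon-saturation sets of HA-tagged, YFP-fused human beta-sarcoglycan, went into HEK293 cells stably carrying alpha-, gamma- and delta-sarcoglycan by duplicate lentiviral transduction at MOI <0.1. Cells were stained on ice with Alexa Fluor 647 anti-HA, fixed and split into four 5% intensity bins, and synonymous variants were scaled per section to mean 0, SD 0.5.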

| Variant | SGCB cell-surface expression functional score (log10) |
| --- | --- |
| G167L | -0.9 |
| I47V | 0.12 |
| A9W | -0.24 |
| Q308R | 0.12 |
| A224H | -0.71 |
| T83G | 0.04 |
| N246H | 0.84 |
| G129H | -0.43 |
| V155F | -0.64 |
| L72V | 0.27 |
| P143F | -0.1 |
| N258L | 0.61 |
| K111C | 0.01 |
| S279P | 0.24 |
| R109S | -0.09 |
| A76E | 0.02 |
| I90A | 0.12 |
| G167P | -1.01 |
| H242S | 0.93 |
| K25G | -0.06 |
| I82Y | -0.15 |
| R130Y | 0.43 |
| N95W | 0.34 |
| G244N | 0.77 |

| Variant | SGCB cell-surface expression functional score (log10) |
| --- | --- |
| V136L | 0.17 |
| N140V | 0.16 |
| V300N | -0.77 |
| R29V | -0.29 |
| V155D | -0.85 |
| I69V | -0.05 |
| R227C | 0.03 |
| G259R | -0.34 |
| G167H | -0.66 |
| S210W | -1.35 |
| G117Q | -1.06 |
| I166C | 0.54 |
| N33M | 0.11 |
| N157Q | 0.38 |
| L153P | -1.07 |
| Q12K | 0.02 |
| V127M | -0.2 |
| E252T | 0.88 |
| G117K | -1.66 |
| G56W | -0.16 |
| A6K | -0.2 |
| P46C | 0.44 |
| M289Y | 0.01 |
| T138C | -0.1 |

| Variant | SGCB cell-surface expression functional score (log10) |
| --- | --- |
| D311A | 0.29 |
| S31D | 0.16 |
| D98K | -0.4 |
| E35I | 0.08 |
| I178F | -0.92 |
| T163Q | 0.21 |
| H53K | -0.51 |
| L257D | -0.5 |
| G149F | -0.45 |
| S310T | -0.25 |
| N217C | -0.04 |
| S38L | -0.26 |
| S279G | -0.07 |
| N63S | -0.25 |
| K34Y | 0.56 |
| N253W | 0.29 |
| Q169P | -1.46 |
| K159A | -0.02 |
| V27M | -0.41 |
| E104P | 0.47 |
| A4W | -0.07 |
| G16R | 0.04 |
| I239V | 0.12 |
| I70A | 0.41 |

| Variant | SGCB cell-surface expression functional score (log10) |
| --- | --- |
| F40A | 0.18 |
| F171A | -0.81 |
| I86R | -0.77 |
| R284M | 0.28 |
| R30Q | 0.15 |
| S14N | 0.61 |
| I239N | -1.44 |
| F170Y | -0.86 |
| Y285G | -0.29 |
| D183L | -0.71 |
| K20D | 0.22 |
| G194Q | 0.38 |
| V127C | 0.53 |
| T126R | -0.36 |
| K34M | -0.24 |
| N15C | 0.19 |
| H53S | -0.22 |
| V232I | 0.47 |
| I82D | -0.85 |
| V113F | -0.38 |
| V195Q | -1.76 |
| Q147L | -0.21 |
| A7E | -0.36 |
| M1W | -0.07 |

| Variant | SGCB cell-surface expression functional score (log10) |
| --- | --- |
| L295F | -0.18 |
| G129F | -0.78 |
| I162E | -0.89 |
| V113Q | -0.79 |
| I47S | 0.29 |
| K297W | -1.48 |
| G259Q | 0.7 |
| V195A | 0.11 |
| T126V | -0.28 |
| F146V | -0.32 |
| I119V | -0.21 |
| N140W | -0.93 |
| G117T | -0.96 |
| G139Y | -1.89 |
| N217I | 0.1 |
| I81M | -0.08 |
| D48F | 0.37 |
| A5P | -0.19 |
| E101H | -1.14 |
| M22P | 0.17 |
| G59T | 0.25 |
| R130F | 0.13 |
| I74G | 0.2 |
| C288Y | -0.01 |

| Variant | SGCB cell-surface expression functional score (log10) |
| --- | --- |
| V68Q | -0.15 |
| D275F | -0.57 |
| A7M | 0.23 |
| Q303H | 0.07 |
| V127L | -0.04 |
| N312L | 0.12 |
| Q299E | 0.61 |
| S273K | -0.55 |
| K196W | -0.69 |
| E252H | 1.12 |
| L75Y | -0.25 |
| I225C | 0.31 |
| Y184H | -0.69 |
| V200F | -1.83 |
| S21W | 0.3 |
| I162Y | -1.43 |
| N199Q | 0.86 |
| S38H | 0.06 |
| V195C | 0.64 |
| G62N | -0.29 |
| I82A | 0.03 |
| Q11Y | 0.17 |
| D215E | 0.16 |
| I70C | -0.3 |

| Variant | SGCB cell-surface expression functional score (log10) |
| --- | --- |
| M1D | 0.69 |
| M235W | 0.91 |
| S13T | -0.13 |
| G274D | -0.37 |
| E133R | -0.14 |
| K20L | 0.12 |
| R223I | 0.02 |
| S260Q | -0.24 |
| K20A | 0.08 |
| C97D | -2.33 |
| R174M | 0.09 |
| Y184Q | -0.78 |
| M100P | -2.03 |
| H53R | 0.29 |
| V261C | 0.48 |
| K237L | 0.6 |
| D115N | -0.27 |
| G59V | 0.33 |
| I255L | 0.57 |
| K196A | 0.53 |
| T175I | -0.13 |
| D183G | -1.31 |
| S154L | -0.22 |
